From patent publication US20170051058A1 (UNIVERSITAET DUISBURG ESSEN, published 2017)
One block for each molecule: values may come before it.

Experiments:
[1] = target: CEACAM1 on human CD8+ T cells from the blood of healthy donors (human) (UniProt P13688); test: flow cytometry on human PBMCs, gated on CD8+ T cells, anti-mouse IgG-APC
CEACAM1 [2] = target: T1, CEACAM1 (human, UniProt P13688 35-526, limits assumed); test: sandwich ELISA, CEACAM1 from CHO transfectants captured by anti-CEA, detection with anti-mouse Ig-HRP
T1 construct: also called entire CEACAM1; CD66a
T1 sequence: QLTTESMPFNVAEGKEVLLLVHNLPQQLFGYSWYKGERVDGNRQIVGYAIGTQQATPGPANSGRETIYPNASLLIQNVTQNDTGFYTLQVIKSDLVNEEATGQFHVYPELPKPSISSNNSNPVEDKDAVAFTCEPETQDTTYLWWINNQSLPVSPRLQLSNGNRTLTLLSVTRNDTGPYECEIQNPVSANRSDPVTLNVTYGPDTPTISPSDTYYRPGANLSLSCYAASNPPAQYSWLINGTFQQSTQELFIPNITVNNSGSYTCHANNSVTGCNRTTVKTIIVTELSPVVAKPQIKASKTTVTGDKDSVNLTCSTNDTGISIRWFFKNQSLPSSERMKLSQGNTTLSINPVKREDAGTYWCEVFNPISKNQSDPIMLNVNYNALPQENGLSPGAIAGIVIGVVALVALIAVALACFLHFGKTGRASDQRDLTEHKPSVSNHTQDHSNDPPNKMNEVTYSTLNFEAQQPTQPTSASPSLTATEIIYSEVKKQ
Procedure: Sandwich ELISA was coated with 0.25 μg/100 microL/well of anti-CEA (Dako). ELISA was washed and remaining binding sites blocked. Subsequently, CEACAM1 or CEACAM1deltaN (therefore CEACAM1 without N-domain, CEACAM1dN) was added thereto. CEACAM1 and CEACAM1deltaN were obtained from CHO transfectants. The ELISA was then incubated with differing antibodies. After 4 hours of incubation, the ELISA was washed and incubated with anti-mouse Ig-HRP. After 1 hour, the substrate TMB was added and the absorption measured at 450 nm.

[3] = target: CEACAM1 without N-domain (human) (UniProt P13688); test: sandwich ELISA, CEACAM1dN from CHO transfectants captured by anti-CEA, detection with anti-mouse Ig-HRP
CEACAM1 [4] = target: T1, CEACAM1; test: method not stated

mean fluorescence intensity [1]: 436 MFI
Molecule: isotype control (antibody)

absorption at 450 nm (mean) (CEACAM1 [2]): 0.62 absorption at 450 nm
absorption at 450 nm (mean) (absorption at 450 nm) [3]: 0.91
Kd (CEACAM1 [4]): 10 nM
B1: anti-human CEACAM1 antibody (clone B3-17) (antibody, V domains shown)
VH: GPELVKPGTSVKMSCKASGYTFTTYVMHWVQQKPGQGLDWIGFFNPYNDGTKYNEKFKGKATLTSDKSSSTAYMELSSLTSEDSAVYYCARWAYDGSYAYWGQGTTLTVSS
VL: SYLSVFLGGRVTITCKASDHINNWLAWYQQKPGNAPRLLISGATSLETGVPSRFSGSGSGKDYTLSIISLQTEDVATYYCQQYWRTPFTFGSGTKLEIK
notes: Mouse monoclonal antibody from a hybridoma; also called antibody B3-17; mAB, B3-17

absorption at 450 nm (mean) (CEACAM1 [2]): 1.3 absorption at 450 nm
absorption at 450 nm (mean) (absorption at 450 nm) [3]: 0.053
Kd (CEACAM1 [4]): 26 nM
B2: anti-human CEACAM1 antibody (clone 18-20) (antibody, V domains shown)
VH: KPGETVKISCKASGYTFTVYGMNWVKQAPGKDLKWMGWINTYTGEPTYADDFKGRFAFSLETSASTAYLQINNLKNEDMATYFCARKAFYRYDGGMDYWGQGTSVTVSS
VL: SSLSASLGGKVTITCKASQDINKFLAWYQHKPGKGPRLLIHYTSTLQPGIPSRFSGSGSGRDYSFSISNLEPEDIATYYCLQYDNLYTFGGGTKLEIK
notes: Mouse monoclonal antibody from a hybridoma; also called antibody 18-20

absorption at 450 nm (mean) (CEACAM1 [2]): 1.09 absorption at 450 nm
absorption at 450 nm (mean) (absorption at 450 nm) [3]: 0.066
Kd (CEACAM1 [4]): 23 nM
B3: anti-human CEACAM1 antibody (clone 6G5J) (antibody, V domains shown)
VH: KPGETVKISCKTSGYIFRNYGMKWVKQAPGKGLKWMGWINTYTGEPTYADDFKGRFAFSLETSASTAYLQINNLKNEDMATYFCARRGMITTSNYALDNWGQGTSVTVSS
VL: SSLSASLGDRVTISCRASQDISNYLNWYQQKPDGTIKLLIYYTSKLHSGVPSRFSGSGSGTDYSLTISNLDQEDIATYFCQQGNTLPWTFGGGTKLEIK
notes: Mouse monoclonal antibody from a hybridoma; also called antibody 6G5J
